Test results reported in patent publication US20250361297A1 (ADAPTAM THERAPEUTICS S L, published 2025).

T1: recombinant human Siglec-15-his protein (Bonopusbio) (human, UniProt Q6ZMC9 20-263)
T1 construct: Bought (CW37-50 ug in the ELISA; the SPR paragraph prints CW70-50 ug); whole entry named; also called recombinant human Siglec-15 protein
T1 sequence: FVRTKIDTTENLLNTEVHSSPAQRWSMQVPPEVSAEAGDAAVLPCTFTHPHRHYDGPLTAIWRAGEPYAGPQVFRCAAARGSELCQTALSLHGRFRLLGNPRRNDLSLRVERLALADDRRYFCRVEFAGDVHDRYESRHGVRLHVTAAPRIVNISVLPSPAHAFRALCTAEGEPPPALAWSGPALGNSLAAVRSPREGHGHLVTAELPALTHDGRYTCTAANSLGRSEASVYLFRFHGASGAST

T2: human Siglec-15, full length, expressed on cells (human, UniProt Q6ZMC9 20-328)
T2 construct: also called hS15; MOLM-13 Siglec-15 expressing cells
T2 sequence: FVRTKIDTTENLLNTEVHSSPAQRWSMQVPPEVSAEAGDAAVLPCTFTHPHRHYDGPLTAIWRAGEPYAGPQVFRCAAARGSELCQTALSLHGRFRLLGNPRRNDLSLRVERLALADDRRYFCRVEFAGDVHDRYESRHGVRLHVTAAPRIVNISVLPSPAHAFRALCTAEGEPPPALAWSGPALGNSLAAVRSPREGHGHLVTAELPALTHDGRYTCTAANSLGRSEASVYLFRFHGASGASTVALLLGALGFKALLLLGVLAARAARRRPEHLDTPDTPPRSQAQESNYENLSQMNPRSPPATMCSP

T3: mouse Siglec-15, full length, expressed on HEK293T cells (mouse)
T3 construct: also called mS15; HEK293T cells expressing mouse Siglec-15
T3 chain: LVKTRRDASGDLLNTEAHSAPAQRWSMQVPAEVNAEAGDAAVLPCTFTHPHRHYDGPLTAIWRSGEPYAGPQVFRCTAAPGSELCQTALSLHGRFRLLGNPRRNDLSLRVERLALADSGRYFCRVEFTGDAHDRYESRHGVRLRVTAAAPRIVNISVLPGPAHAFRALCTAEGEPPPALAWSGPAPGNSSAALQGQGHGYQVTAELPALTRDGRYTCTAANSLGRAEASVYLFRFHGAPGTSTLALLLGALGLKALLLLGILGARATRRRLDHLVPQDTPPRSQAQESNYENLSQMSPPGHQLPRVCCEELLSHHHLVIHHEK

T4: truncated human Siglec-15 comprising only domain 2 (D2), expressed on HEK293T cells (human, UniProt Q6ZMC9 168-251, limits assumed)
T4 construct: also called domain 2-only human Siglec-15; Siglec-15 Domain 2 (D2) HEK293T cells
T4 sequence: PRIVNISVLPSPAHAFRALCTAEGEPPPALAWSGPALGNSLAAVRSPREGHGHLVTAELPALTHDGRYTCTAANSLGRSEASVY


How the values were obtained:
[1] = molecular target: T1, recombinant human Siglec-15-his protein …; test: SPR (Biacore T200), antibody on CM5 chip, Siglec-15-his as analyte
Method: Binding affinity determination of anti-Siglec-15 monoclonal antibodies using BIACORE surface plasmon resonance: The purified anti-Siglec-15 monoclonal antibodies (mAbs) were characterized for binding affinity and binding kinetics by Biacore T200 system (GE healthcare, Pittsburgh, PA, USA). […] Un-reacted moieties on the biosensor surface were blocked with ethanolamine. Then, serially diluted recombinant human Siglec-15-his protein (Bonopusbio, CW70-50 ug), 2-fold serial dilution in HBS-EP buffer starting at 80 nM, were respectively flown onto the chip at a flow rate of 30 pL/min. The antigen-antibody association kinetics was followed for 2 minutes, and the dissociation kinetics was followed for 10 minutes. The association and dissociation curves were fit to a 1:1 Langmuir binding model using BIAcore evaluation software. The dissociation rate (kd) and association constant (ka) rate constants were obtained using Evaluation Software. The equilibrium dissociation constant (KD) was calculated from the ratio of kd over ka.

[2] = molecular target: T2, human Siglec-15, full length, expressed …; test: flow cytometry, HEK293T cells expressing human Siglec-15, anti-human IgG-PE, MFI
Method: Flow cytometry was used to quantify the antibodies bound to the HEK293T cells.
Then, anti-Siglec-15 mAbs were added to the cell suspension at the desired concentration, starting at 10 μg/mL and performing 1/3 dilutions. Cells were incubated with the indicated antibodies for 30-60 minutes at 4° C. in the dark to prevent degradation of the fluorescent signal. After the primary antibody incubation, cells were washed twice with PBS or flow cytometry buffer by centrifuging at 300-500× g for 5 minutes and the pellet resuspended in fresh buffer. The following antibody was added: anti-human IgG-PE at a 1:500 dilution. Cells were incubated with the secondary antibody for 30 minutes at 4° C. in the dark. Finally, cells were washed twice with PBS or flow cytometry buffer to remove any excess secondary antibody and acquired in a flow cytometer.

[3] = molecular target: T3, mouse Siglec-15, full length, expressed …; test: IgG1 titration, flow cytometry on HEK293T cells expressing mouse Siglec-15
Method: The antibodies were titrated against HEK293T cells expressing mouse Siglec-15 or HEK293T cells expressing a truncated human Siglec-15 consisting solely of domain 2 (FIG. 9).
For the ELISA, antigens were immobilized on high-binding plates, and the full-length IgG1 anti-Siglec-15 antibodies were titrated beginning at a concentration of 10 μg/ml. After washing, an anti-human IgG Fab-specific HRP-conjugated secondary antibody was applied for detection. Palivizumab was included as the negative control. Optical densities were measured to generate binding curves from which EC50 values were derived. In the flow cytometry assay, MOLM-13 cells expressing human Siglec-15 and MOLM-13 wild-type cells (negative control) were incubated with titrated antibodies starting at 10 μg/ml. After incubation, cells were washed and incubated with an anti-human Fc-specific secondary antibody conjugated with a fluorescent marker. Flow cytometric analysis was conducted, and fluorescence intensity was used to calculate EC50 values, providing a quantitative assessment of the antibodies' cell surface binding efficacy. HEK293T cells were genetically engineered to express full-length mouse Siglec-15 and a truncated version of human Siglec-15 encompassing only domain 2. Antibodies were titrated starting at a concentration of 10 μg/ml and detected with an anti-human Fc-specific secondary antibody to detect bound primary antibodies. […] Results were analyzed and ranked based on the EC50 values.

[4] = molecular target: T2, human Siglec-15, full length, expressed …; test: IgG1 titration, flow cytometry on MOLM-13 human Siglec-15 cells
Method: Complementary to the ELISA, flow cytometry assays provided insight into the binding behavior of the antibodies on the cell surface. Here, titration of the antibodies began at the same concentration of 10 μg/ml, using MOLM-13 human Siglec-15 and MOLM-13 wild-type cells as a negative control, with detection performed using an anti-human Fc secondary antibody (FIG. 8B).
In the flow cytometry assay, MOLM-13 cells expressing human Siglec-15 and MOLM-13 wild-type cells (negative control) were incubated with titrated antibodies starting at 10 μg/ml. After incubation, cells were washed and incubated with an anti-human Fc-specific secondary antibody conjugated with a fluorescent marker. Flow cytometric analysis was conducted, and fluorescence intensity was used to calculate EC50 values, providing a quantitative assessment of the antibodies' cell surface binding efficacy.

[5] = molecular target: T4, truncated human Siglec-15 comprising …; test: flow cytometry, HEK293T cells expressing only domain 2 of human Siglec-15, fold change of Siglec15 gMFI relative to 2ry control
Method: Assessment of the binding of anti-Siglec-15 antibodies to HEK293T cells expressing full length human Siglec-15, or mutant human Siglec-15 (R143A) or the domain 2 of human Siglec-15 by Flow cytometry: Siglec-15+, Siglec-15+R143A, and Siglec-15 Domain 2 (D2) HEK293T cells were detached using tryple and washed once with PBS, resuspended in 1× flow cytometry buffer (PBS with 1% FBS) at approximately 1-2×10\hat{ }6 cells/mL. Then, anti-Siglec-15 mAbs were added to the cell suspension at the desired concentration, starting at 10 μg/mL and performing 1/3 dilutions. Cells were incubated with the indicated antibodies for 30-60 minutes at 4° C. in the dark to prevent degradation of the fluorescent signal. After the primary antibody incubation, cells were washed twice with PBS or flow cytometry buffer by centrifuging at 300-500× g for 5 minutes and the pellet resuspended in fresh buffer. The following antibody was added: anti-human IgG-PE at a 1:500 dilution. Cells were incubated with the secondary antibody for 30 minutes at 4° C. in the dark. Finally, cells were washed twice with PBS or flow cytometry buffer to remove any excess secondary antibody and acquired in a flow cytometer.

Binder | Kd [1] [nM] | koff [1] [s⁻¹] | kon [1] [M⁻¹ s⁻¹] | EC50 (read off the curve) [2] [nM] | EC50 [3] [µg/mL] | EC50 [4] [µg/mL] | binding result [5]
S15B1-VH4 + VL1 (antibody, V domains shown, Humanized S15B1; also called humanized S15B1 VH4+VL1; huS15B1) VH: QVQLVQSGAEVKKPGASVKVSCKASGYAFSSSWMNWVKQAPGQGLEWIGRIYPGHGETNYNGKFKDRATMTADKSTSTVYMELSSLRSEDTAVYFCARVDNSDPYYFDYWGQGTTVTVSS VL: DIVLTQSPASLAVSPGQRATITCRASKSVSTSGYSYMHWYQQKPGQPPKLLIYLASNLESGVPARFSGSGSGTDFTLTINPVEAEDTANYYCQHGRELPFTFGGGTKLEIK | 0.0938 | 0.000385 | 4.1e+06 | – | – | – | –
S15B1-VH1 + VL2 (antibody, V domains shown, Humanized S15B1; also called humanized S15B1 VH1+VL2; huS15B1) VH: QVQLVQSGAEVKKPGASVKVSCKASGYAFSSSWMNWVRQAPGQGLEWIGRIYPGHGETNYNGKFKDRVTMTADTSTSTVYMELSSLRSEDTAVYFCARVDNSDPYYFDYWGQGTTVTVSS VL: DIVLTQSPASLAVSPGQRATITCRASKSVSTSGYSYMHWYQQKPGQPPKLLIYLASNLESGVPARFSGSGSGTDFTLTINPVEAEDTATYYCQHGRELPFTFGGGTKLEIK | 0.159 | 0.000563 | 3.54e+06 | – | – | – | –
S15B1-VH4 + VL2 (antibody, V domains shown, Humanized S15B1; also called humanized S15B1 VH4+VL2; huS15B1) VH: QVQLVQSGAEVKKPGASVKVSCKASGYAFSSSWMNWVKQAPGQGLEWIGRIYPGHGETNYNGKFKDRATMTADKSTSTVYMELSSLRSEDTAVYFCARVDNSDPYYFDYWGQGTTVTVSS VL: DIVLTQSPASLAVSPGQRATITCRASKSVSTSGYSYMHWYQQKPGQPPKLLIYLASNLESGVPARFSGSGSGTDFTLTINPVEAEDTATYYCQHGRELPFTFGGGTKLEIK | 0.138 | 0.000234 | 1.69e+06 | – | – | – | –
S15B1-VH2 + VL2 (antibody, V domains shown, Humanized S15B1; also called humanized S15B1 VH2+VL2; huS15B1) VH: QVQLVQSGAEVKKPGASVKVSCKASGYAFSSSWMNWVRQAPGQGLEWIGRIYPGHGETNYNGKFKDRVTMTADTSTSTVYMELSSLRSEDTAVYFCARVDNSDPYYFDYWGQGTTVTVSS VL: DIVLTQSPASLAVSPGQRATITCRASKSVSTSGYSYMHWYQQKPGQPPKLLIYLASNLESGVPARFSGSGSGTDFTLTINPVEAEDTATYYCQHGRELPFTFGGGTKLEIK | 0.0946 | 0.000326 | 3.44e+06 | ~1 | – | – | –
ZLA-1214-D08 (antibody, V domains shown, Fully human, from phage display) VH: EVQLVQSGAEVKKPGASVKVSCKASGYTFTGYYMHWVRQAPGQGLEWMGRINPNSGGTNYAQKFQGRVTMTRDTSTSTAYMELSRLRSDDTAVYYCARVINDAFDMWGQGTMVTVSS VL: not shown | – | – | – | – | 0.103 | 0.106 | no binding
ZLA-1243-E01 (antibody, V domains shown, Fully human, from phage display) VH: QVQLVQSGGGLVQPGRSLRLSCAASGFTFDDYAMHWVRQAPGKGLEWVSGISWNSGSIGYADSVKGRFTISRDNAKNSLYLQMNSLRAEDTALYYCAKGLWPSYDLDAFDIWGQGTMVTVSS VL: QSALTQPASVSGSPGQSITLSCTGTSSDVGAYNFVSWYQQHPGTAPKLMIYEVSNRPSGVSDRFSGSKSGNTASLTISGLQAEDEADYYCSSYTSTIPPFVFGTGTKVTVL | – | – | – | – | 0.0849 | 0.174 | no binding
ZLA-1212-E09 (antibody, V domains shown, also called clone ZLA-1212-E09) VH: QVQLVQSGGGVVQPGRSLRLSCAASGFTFSSYGMHWVRQAPGKGLEWVAVISYDGSNKYYADSVKGRFTISRDNSKNTLYLQMNSLRAEDTAVYYCAKDDSGYYDSSGYDYWGQGTLVTVSS VL: QSVLTQPPSVSGAPGQRVTISCTGSSSNIGAGYDVHWYQQLPGTAPKLLIYGNSNRPSGVPDRFSGSKSGTSASLAITGLQAEDEADYYCQSYDSSLSGVVFGGGTKLTVL | – | – | – | – | 0.191 | 0.178 | no binding
